Results published in patent publication US20180327506A1 (AbbVie / Abbott, published 2018).
Read-outs that look alike come from different tables or passages of the source.

T1: full-length mature human EMR2 (residues Q24-N823) with N-terminal aspartic acid/lysine epitope tag, … (human, UniProt Q9UHX3 24-823)
T1 construct: Built from NM_013447; The IgK signal peptide is not part of the mature protein; also called hEMR2; hEMR2-NFlag
T1 sequence: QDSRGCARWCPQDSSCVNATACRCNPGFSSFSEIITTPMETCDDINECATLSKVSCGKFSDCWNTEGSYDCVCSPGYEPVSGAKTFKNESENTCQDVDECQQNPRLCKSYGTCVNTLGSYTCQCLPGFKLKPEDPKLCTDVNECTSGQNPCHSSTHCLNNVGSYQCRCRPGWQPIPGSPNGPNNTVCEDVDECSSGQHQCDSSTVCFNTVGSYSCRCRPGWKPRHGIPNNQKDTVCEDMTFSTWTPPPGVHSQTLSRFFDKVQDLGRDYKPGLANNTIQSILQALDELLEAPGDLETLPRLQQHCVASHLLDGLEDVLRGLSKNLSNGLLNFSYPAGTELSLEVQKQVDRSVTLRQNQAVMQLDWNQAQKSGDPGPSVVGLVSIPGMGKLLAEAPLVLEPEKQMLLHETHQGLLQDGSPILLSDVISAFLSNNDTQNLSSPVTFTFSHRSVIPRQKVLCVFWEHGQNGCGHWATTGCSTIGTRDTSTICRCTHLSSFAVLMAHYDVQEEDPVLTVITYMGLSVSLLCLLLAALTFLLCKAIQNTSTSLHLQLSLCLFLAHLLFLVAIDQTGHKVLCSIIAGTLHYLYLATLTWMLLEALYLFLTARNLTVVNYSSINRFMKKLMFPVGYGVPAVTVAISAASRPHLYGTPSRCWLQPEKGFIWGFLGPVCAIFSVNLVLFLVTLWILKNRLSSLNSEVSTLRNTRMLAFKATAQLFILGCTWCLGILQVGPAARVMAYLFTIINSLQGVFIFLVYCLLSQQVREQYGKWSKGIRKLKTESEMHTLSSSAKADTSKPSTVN

T2: full-length mature cynomolgus EMR2 (residues Q24-N816) with N-terminal aspartic acid/lysine epitope tag, … (cynomolgus monkey (Macaca fascicularis), UniProt A0A2K5WL23 21-816)
T2 construct: whole, on cells; also called cEMR2; cEMR2-NFlag
T2 sequence: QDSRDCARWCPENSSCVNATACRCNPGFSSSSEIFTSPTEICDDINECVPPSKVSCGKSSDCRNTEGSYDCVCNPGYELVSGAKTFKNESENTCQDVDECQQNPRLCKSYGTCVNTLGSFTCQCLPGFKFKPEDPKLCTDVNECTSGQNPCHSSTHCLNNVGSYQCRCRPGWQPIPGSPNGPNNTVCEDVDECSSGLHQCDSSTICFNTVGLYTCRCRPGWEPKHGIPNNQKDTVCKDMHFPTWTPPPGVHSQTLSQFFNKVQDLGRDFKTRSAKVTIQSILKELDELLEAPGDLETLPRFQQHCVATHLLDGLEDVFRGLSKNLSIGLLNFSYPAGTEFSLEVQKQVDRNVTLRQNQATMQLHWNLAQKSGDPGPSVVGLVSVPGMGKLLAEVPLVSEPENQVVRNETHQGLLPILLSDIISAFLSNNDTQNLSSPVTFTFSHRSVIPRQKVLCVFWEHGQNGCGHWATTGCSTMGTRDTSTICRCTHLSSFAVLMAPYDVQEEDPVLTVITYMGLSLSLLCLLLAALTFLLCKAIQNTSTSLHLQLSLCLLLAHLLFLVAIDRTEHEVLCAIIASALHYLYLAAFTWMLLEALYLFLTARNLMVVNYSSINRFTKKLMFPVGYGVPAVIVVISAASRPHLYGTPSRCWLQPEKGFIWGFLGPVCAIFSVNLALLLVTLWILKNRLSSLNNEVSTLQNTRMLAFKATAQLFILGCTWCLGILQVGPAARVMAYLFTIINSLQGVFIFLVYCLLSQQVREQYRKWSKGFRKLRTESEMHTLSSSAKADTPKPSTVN

T3: full-length mature human CD97 (residues Q21-I845) with N-terminal aspartic acid/lysine epitope tag, … (human, UniProt P48960 21-835)
T3 construct: whole, on cells; also called hCD97; hCD97-NFlag
T3 sequence (looked up): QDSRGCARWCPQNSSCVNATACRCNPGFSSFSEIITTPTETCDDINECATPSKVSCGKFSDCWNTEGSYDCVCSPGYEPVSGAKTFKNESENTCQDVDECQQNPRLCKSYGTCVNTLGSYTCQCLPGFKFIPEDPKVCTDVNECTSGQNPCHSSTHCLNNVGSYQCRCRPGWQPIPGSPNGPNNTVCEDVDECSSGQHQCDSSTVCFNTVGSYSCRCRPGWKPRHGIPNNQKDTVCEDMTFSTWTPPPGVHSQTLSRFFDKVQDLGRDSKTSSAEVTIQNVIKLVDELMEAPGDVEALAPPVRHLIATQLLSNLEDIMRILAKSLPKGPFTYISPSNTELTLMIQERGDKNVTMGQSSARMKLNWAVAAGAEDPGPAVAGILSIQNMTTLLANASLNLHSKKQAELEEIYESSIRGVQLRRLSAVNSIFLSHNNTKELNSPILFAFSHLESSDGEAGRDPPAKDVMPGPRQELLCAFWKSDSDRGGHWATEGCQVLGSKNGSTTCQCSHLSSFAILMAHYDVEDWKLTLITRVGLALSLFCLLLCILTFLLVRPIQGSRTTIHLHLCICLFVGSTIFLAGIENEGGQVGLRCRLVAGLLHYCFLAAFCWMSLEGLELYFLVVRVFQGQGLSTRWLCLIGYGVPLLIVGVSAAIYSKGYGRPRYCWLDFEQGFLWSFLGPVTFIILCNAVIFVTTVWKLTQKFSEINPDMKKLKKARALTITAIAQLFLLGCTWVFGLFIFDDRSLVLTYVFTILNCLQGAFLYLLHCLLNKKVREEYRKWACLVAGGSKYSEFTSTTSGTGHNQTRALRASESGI

B1: SC93.239 (antibody, V domains shown)
VH: LVQLQQSGVELARPGASVKLSCKASGYIFTSYGISWVKQRTGQGLEWIGNIYPRTGNTYYNEKFKDKATLTADKSSNTAYMELRSLTSEDSAVYFCARGTHYDPLDYWGQGTTLTVSS
VL: ENVLTQSPAIMSASPGEKVTMTCRASSSVSSSDLHWYQQKSGASPKLWIYSTSNLASGVPARFSGSGSGASCSLTISSVEAEDAATYYCHQYSGYPWTFGGGTKLEIK
notes: Murine hybridoma antibody with a kappa light chain; also called clone SC93.239; SC93.239 (Bin A)
B2: SC93.243 (antibody, IgG2b, V domains shown)
VH: QVQLQQSGAELMKPGASVKISCKATGYTFSSYWIEWVKQRPGHGLEWIGEILPGSGRTNYNERLKGKATFTADTSSNTAYMQLSSLTSEDSAVYYCARPYFYGSNFDFWGQGTTLTVSS
VL: DIVMTQSHKFMSTSVGDRVSITCKASQDVGTAVAWYQQKPGQSPKLLIYWASTRHTGVPDRFTGSGSGTDFTLTISNVQSEDLADYFCQQYSSYHTFGGGTKLEIK
notes: murine, IgG2b
B3: SC93.252 (antibody, IgG2a, V domains shown)
VH: QVQLQQSDAELVKPGASVKISCKVSGFSFTDHTIHWMRQRPEQGLEWIGYIYPTDGNTRYNEKFKGKASLTADKSSTTAYMQLSSLTSEDSAVYFCAKRGYYWYFDVWGTGTTVTVSS
VL: DIQMTQASSYLSVSLGGRVTITCKASDHINNWLAWYQQKPGNAPRLLISHATNLETGFPSRFSGSGSGKDYTLSITSLQTEDVATYYCQQYWNIPYTFGGGTKLEIE
notes: murine, IgG2a
B4: SC93.253 (antibody, V domains shown)
VH: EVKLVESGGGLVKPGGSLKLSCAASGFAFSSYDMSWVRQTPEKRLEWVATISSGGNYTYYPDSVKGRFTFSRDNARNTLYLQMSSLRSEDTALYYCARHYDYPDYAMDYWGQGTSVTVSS
VL: DIVMTQSQKFMSTSVGDRIIITCKASQNVRTTVDWYQQKPGQSPKVLISLASNRHTGVPDRFTGSGSGTDFTLTISNVQSEDLADYFCLQHRNYPLTFGGGTKLEIK
notes: Murine hybridoma antibody with a kappa light chain
B5: SC93.15 (antibody, IgG1, V domains shown)
VH: EVQLQQSGPELVKPGASVKISCKGSGYTFTDYFMNWVKLSHGKSLEWIGEINPNNGGTNYNQKFKGKATLTVDKSSSIAYMELRSLTSEDSAVYYCARPGTNYWGPGTTLTVSS
VL: DIVMTQSHKFMSTSVGDRVSITCKASQNVGTSVAWYQQKPGHSPKLLIYWASTRHTGVPDRFTGSGSGTDFSLTISSVQSEDLTDYFCQQYSSYPLTFGGGTKLEIK
B6: SC93.216 (antibody, IgG1, V domains shown)
VH: EVQLVESGGGLVKPGGSLKLSCAASGFTFSSYGMSWVRQTPEKRLEWVAAIHSNGDITYYPDTVKGRFTISRDNAKNTLYLQMSSLTSEDTALYYCANLAYWGQGTLVTVSA
VL: EIQMTQSPSSMSASLGDRITITCQATQDIVKNLNWYQQKPGKSPSSLIYYATELAEGVPSRFSGSGSGSDYSLTISNLESEDFADYYCLQFYEFPLTFGAGTKLELK

How the values were obtained:
[1] = biological target: T1, full-length mature human EMR2 (residues …); experiment: flow cytometry on transduced HEK293T; 293 naive MFI 97.8
Experimental: (§1) The exemplary antibodies were also tested using flow cytometry to determine their ability to associate with hEMR2, cEMR2 and CD97 expressed on the surface of cells.

[2] = biological target: T2, full-length mature cynomolgus EMR2 …; experiment: as above
Experimental: as §1

[3] = biological target: T3, full-length mature human CD97 (residues …); experiment: as above
Experimental: as §1

[4] = biological target: T1, full-length mature human EMR2 (residues …); experiment: cell-based or functional assay
[5] = biological target: T2, full-length mature cynomolgus EMR2 …; experiment: cell-based or functional assay
[6] = biological target: T3, full-length mature human CD97 (residues …); experiment: cell-based or functional assay
[7] = biological target: T1, full-length mature human EMR2 (residues …); experiment: flow cytometry on transduced HEK293T; 293 naive MFI 97.1
Experimental: as §1

[8] = biological target: T2, full-length mature cynomolgus EMR2 …; experiment: as above
Experimental: as §1

[9] = biological target: T3, full-length mature human CD97 (residues …); experiment: as above
Experimental: as §1

[10] = biological target: T1, full-length mature human EMR2 (residues …); experiment: flow cytometry on transduced HEK293T; 293 naive MFI 326
Experimental: as §1

[11] = biological target: T2, full-length mature cynomolgus EMR2 …; experiment: as above
Experimental: as §1

[12] = biological target: T3, full-length mature human CD97 (residues …); experiment: as above
Experimental: as §1

[13] = biological target: T1, full-length mature human EMR2 (residues …); experiment: flow cytometry on transduced HEK293T; 293 naive MFI 99.5
Experimental: as §1

[14] = biological target: T2, full-length mature cynomolgus EMR2 …; experiment: as above
Experimental: as §1

[15] = biological target: T3, full-length mature human CD97 (residues …); experiment: as above
Experimental: as §1

[16] = biological target: T1, full-length mature human EMR2 (residues …); experiment: cell-based or functional assay; remark: listed apart in the source
[17] = biological target: T3, full-length mature human CD97 (residues …); experiment: cell-based or functional assay; remark: listed apart in the source

Row | Binder | % live, FAB-saporin killing assay [4] [%] | % live, FAB-saporin killing assay [5] [%] | % live, FAB-saporin killing assay [6] [%] | % live, FAB-saporin killing assay [16] [%] | % live, FAB-saporin killing assay [17] [%] | further results
1 | B1 | 16.8 | 16.7 | 106 |  |  | FC MFI [1]: 71100; FC MFI [2]: 76700; FC MFI [3]: 925
2 | B2 | 68.7 | 20.8 | 91.9 |  |  | FC MFI [7]: 42700; FC MFI [8]: 65800; FC MFI [9]: 8140
3 | B3 | 10.8 | 9.42 | 9.09 |  |  | FC MFI [10]: 40500; FC MFI [11]: 45200; FC MFI [12]: 43800
4 | B4 | 13.4 | 11.1 | 92.2 |  |  | FC MFI [13]: 38300; FC MFI [14]: 48700; FC MFI [15]: 328
5 | B5 |  |  |  | 15 | 99.5 | 
6 | B6 |  |  |  | 102 | 107 | 
